{"source": "patent US6258556", "about": "“cDNA and genomic clones encoding human µ opiate receptor and the purified gene product” (The United States of America as represented by the …, dated 2001)", "binders": {"B1": {"name": "(D-ala^2, N-methyl-phe^4, glyol^5) enkephalin (peptide)", "peptide": "Y[dA]G[NMeF][NHCH2CH2OH]", "modifications": "not fully specified (C-terminus); printed as (D-ala^2, N-methyl-phe^4, glyol^5) enkephalin; also: [3H] label in binding assays"}}, "key": {"[1]": {"biological_target": "human µ opiate receptor (human)", "experiment": "displacement of [3H]DAMGO from COS cells expressing hµOR1; paragraph 40 says 'low affinities', CLM-00014 calls the value a KD", "description": "(§1) COS cells were transfected by electroporation with 20 µg/10^7 cells of plasmid pcDNA1hµOR1, grown for two to three days and tested for opiate receptor expression by radioligand binding as described, except that whole cell suspensions were used. Adenyl cyclase activities were assessed by radioimmunoassay as described. Cells transfected with the pcDNA1 vector alone served as negative controls."}, "[2]": {"biological_target": "human µ opiate receptor (human)", "experiment": "displacement of [3H]DAMGO from COS cells expressing hµOR1; 'low affinities of less than 100 nM' is read as weaker than 100 nM", "description": "as §1"}, "[3]": {"biological_target": "human µ opiate receptor (human)", "experiment": "saturation radioligand binding, whole COS cells transfected with pcDNA1hµOR1", "description": "as §1"}, "[4]": {"biological_target": "human µ opiate receptor (human)", "experiment": "[3H]DAMGO binding to COS cells expressing hµOR1, with against without 50 µM Gpp(NH)p", "description": "as §1"}, "[5]": {"biological_target": "human µ opiate receptor (human)", "experiment": "[3H]DAMGO binding to COS cells expressing hµOR1, with sodium chloride as low as 5 mM; CLM-00019 ties this to DAMGO", "description": "as §1"}}, "note": "Non-standard residues stand in square brackets, D forms with d. No end group written: not given here. *: point of attachment. NMeF = CN[C@@H](Cc1ccccc1)C(=O)O; NHCH2CH2OH = OCCN*"}
{"binder": "YGGFLRRIRPKLKWDNQ", "note": "[dynorphin A 1-17]", "values": [{"measurement": "Kd", "setting": "[1]", "value": 284, "unit": "nM"}]}
{"binder": "YXGFX (D-penicillamine at 2 and at 5 (written X))", "note": "[DPDPE (D-pen^2, D-pen^5 enkephalin)]", "values": [{"measurement": "Kd", "setting": "[2]", "value": "> 100", "unit": "nM"}]}
{"binder": "B1", "values": [{"measurement": "Kd", "setting": "[3]", "value": 1.2, "unit": "nM"}, {"measurement": "fold reduction of affinity with 50 µM Gpp(NH)p", "setting": "[4]", "value": "> 3", "unit": "fold"}, {"measurement": "fold reduction of binding affinity with 5 mM sodium chloride", "setting": "[5]", "value": 2, "unit": "fold"}]}
